In the supplement of paper PMC10724198:
± gives the standard deviation of the averaged measurements.

Assays:
[1] = test system: Saccharomyces cerevisiae; test: protein stability index of tFT-peptide fusion (C-terminal peptide) (PSI (0-1 scale)); higher = more stable (slower turnover)
Description: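 MPS profiling in S. cerevisiae of the tFT-X12 degron library: putative degron peptides plus stable controls, 12 aa, fused to the C-terminus of a sfGFP-mCherry timer. Cells are FACS-sorted into 8 mCherry/sfGFP bins and deep-sequenced. PSI runs from 0 (unstable) to 1 (stable). Backgrounds are wild type, das1Δ and doa10Δ at 30 °C, and wild type, das1Δ, cdc34-1 and cdc53-1 at 37 °C; 2-3 technical replicates each.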

[2] = test system: Saccharomyces cerevisiae; test: as above; settings: genetic background: wild type; temperature: 30 C
[3] = genetic background: cdc34-1, temperature: 37 C
[4] = genetic background: cdc53-1, temperature: 37 C
[5] = genetic background: das1 deletion, temperature: 30 C
[6] = genetic background: das1 deletion, temperature: 37 C
[7] = genetic background: doa10 deletion, temperature: 30 C
[8] = genetic background: wild type, temperature: 30 C
[9] = genetic background: wild type, temperature: 37 C
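Further: PSI is a weighted mean of sequencing reads over stability bins, variants kept only with over 10 reads, mCherry proximal and sfGFP distal, peptide attached via GGGS linker.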

| Sequence | protein stability index [1, 3] | protein stability index [1, 4] | protein stability index [1, 5] | protein stability index [1, 6] | protein stability index [1, 7] | protein stability index [1, 8] | protein stability index [1, 9] | protein stability index [2] |
| --- | --- | --- | --- | --- | --- | --- | --- | --- |
| EGGLGDRLLGVG | 0.526 ± 0.035 | 0.577 ± 0.0092 | 0.501 ± 0.0078 | 0.573 ± 0.021 | 0.5161 ± 0.0024 | 0.518 ± 0.016 | 0.547 ± 0.0066 | 0.47 ± 0.015 |
| EMISRNVFTYLS | 0.684 ± 0.037 | 0.755 ± 0.012 | 0.619 ± 0.034 | 0.773 ± 0.023 | 0.394 ± 0.034 | 0.42 ± 0.023 | 0.6266 ± 0.0049 | 0.473 ± 0.03 |
| EMPRLSKAIRVT | 0.5407 ± 0.00036 | 0.5702 ± 0.0053 | 0.371 ± 0.026 | 0.603 ± 0.011 | 0.279 ± 0.0047 | 0.314 ± 0.028 | 0.4961 ± 0.0028 | 0.44 ± 0.029 |
| EVGTMALISCSV | 0.3854 ± 0.001 | 0.356 ± 0.084 | 0.319 ± 0.05 | 0.458 ± 0.022 | 0.252 ± 0.019 | 0.288 ± 0.034 | 0.427 ± 0.039 | 0.428 ± 0.034 |
| EWSRVVRWNWDG | 0.528 ± 0.046 | 0.69857 ± 0.00044 | 0.637 ± 0.011 | 0.707 ± 0.0084 | 0.121 ± 0.0082 | 0.148 ± 0.014 | 0.266 ± 0.015 | 0.254 ± 0.027 |
| FALVSLSFALVE | 0.4203 ± 0.00048 | 0.457 ± 0.019 | 0.306 ± 0.025 | 0.518 ± 0.0066 | 0.28 ± 0.0036 | 0.292 ± 0.036 | 0.472 ± 0.02 | 0.379 ± 0.034 |
| FAVHHLRYILLV | 0.227 ± 0.029 | 0.325 ± 0.019 | 0.316 ± 0.024 | 0.436 ± 0.0073 | 0.0929 ± 0.009 | 0.0847 ± 0.024 | 0.129 ± 0.016 | 0.106 ± 0.016 |
| FCCSVFCFLCLY | 0.562 ± 0.044 | 0.548 ± 0.02 | 0.505 ± 0.027 | 0.572 ± 0.0057 | 0.5442 ± 0.001 | 0.492 ± 0.0071 | 0.518 ± 0.019 | 0.504 ± 0.049 |
| FCGLLGVCLVMG | 0.208 ± 0.042 | 0.298 ± 0.006 | 0.243 ± 0.032 | 0.389 ± 0.013 | 0.185 ± 0.016 | 0.221 ± 0.03 | 0.354 ± 0.011 | 0.326 ± 0.032 |
| FCHFSSLVSVSL | 0.614 ± 0.011 | 0.6089 ± 0.0042 | 0.498 ± 0.024 | 0.6377 ± 0.0016 | 0.494 ± 0.021 | 0.496 ± 0.018 | 0.611 ± 0.025 | 0.577 ± 0.18 |
| FCLLRYPFVGVL | 0.625 ± 0.047 | 0.683 ± 0.025 | 0.554 ± 0.022 | 0.677 ± 0.025 | 0.272 ± 0.0032 | 0.318 ± 0.0089 | 0.514 ± 0.0069 | 0.415 ± 0.013 |
| FCSNLLSMVIAV | 0.344 ± 0.0055 | 0.382 ± 0.014 | 0.32 ± 0.032 | 0.4315 ± 0.0038 | 0.265 ± 0.012 | 0.3 ± 0.012 | 0.438 ± 0.029 | 0.432 ± 0.014 |
| FCVGVLFSCLVF | 0.338 ± 0.041 | 0.412 ± 0.032 | 0.313 ± 0.021 | 0.4295 ± 0.0031 | 0.286 ± 0.0042 | 0.301 ± 0.019 | 0.43 ± 0.023 | 0.394 ± 0.019 |
| FCVGVVIQLSGV | 0.435 ± 0.053 | 0.491 ± 0.034 | 0.311 ± 0.035 | 0.499 ± 0.0053 | 0.296 ± 0.0032 | 0.326 ± 0.021 | 0.473 ± 0.014 | 0.415 ± 0.0067 |
| FCVLLFYCFFFF | 0.322 ± 0.011 | 0.322 ± 0.099 | 0.276 ± 0.039 | 0.38 ± 0.0096 | 0.314 ± 0.012 | 0.273 ± 0.032 | 0.335 ± 0.041 | 0.356 ± 0.03 |
| FERKVHSRWLFF | 0.56888 ± 0.00051 | 0.745 ± 0.022 | 0.658 ± 0.011 | 0.7407 ± 0.00086 | 0.0981 ± 0.019 | 0.15 ± 0.016 | 0.437 ± 0.018 | 0.23 ± 0.038 |
| FFATFVPSFLLC | 0.606 ± 0.023 | 0.674 ± 0.048 | 0.556 ± 0.02 | 0.6776 ± 0.00086 | 0.268 ± 0.0089 | 0.305 ± 0.022 | 0.511 ± 0.021 | 0.407 ± 0.033 |
| FFCYFFEFFICG | 0.326 ± 0.054 | 0.419 ± 0.013 | 0.339 ± 0.028 | 0.468 ± 0.0082 | 0.337 ± 0.015 | 0.323 ± 0.011 | 0.441 ± 0.025 | 0.382 ± 0.017 |
| FFFVFLGLRSVF | 0.348 ± 0.019 | 0.358 ± 0.084 | 0.357 ± 0.04 | 0.577 ± 0.11 | 0.339 ± 0.011 | 0.292 ± 0.016 | 0.434 ± 0.012 | 0.387 ± 0.049 |
| FFGFFWLFLLFC | 0.239 ± 0.022 | 0.222 ± 0.005 | 0.291 ± 0.021 | 0.364 ± 0.016 | 0.318 ± 0.019 | 0.202 ± 0.033 | 0.257 ± 0.02 | 0.267 ± 0.0029 |

| Sequence | protein stability index [1, 3] | protein stability index [1, 4] | protein stability index [1, 5] | protein stability index [1, 6] | protein stability index [1, 7] | protein stability index [1, 8] | protein stability index [1, 9] | protein stability index [2] |
| --- | --- | --- | --- | --- | --- | --- | --- | --- |
| FFIVGACAYVFA | 0.223 ± 0.036 | 0.30494 ± 0.00019 | 0.228 ± 0.031 | 0.385 ± 0.0094 | 0.204 ± 0.013 | 0.231 ± 0.029 | 0.37 ± 0.015 | 0.319 ± 0.033 |
| FFLLLVSVLSGW | 0.177 ± 0.035 | 0.255 ± 0.047 | 0.198 ± 0.017 | 0.3301 ± 0.00052 | 0.152 ± 0.02 | 0.185 ± 0.029 | 0.2942 ± 0.00091 | 0.316 ± 0.038 |
| FFPFHPHVLRLL | 0.421 ± 0.044 | 0.433 ± 0.014 | 0.477 ± 0.039 | 0.6373 ± 0.0012 | 0.215 ± 0.0068 | 0.203 ± 0.026 | 0.324 ± 0.014 | 0.282 ± 0.053 |
| FFRAYLQMYVTD | 0.412 ± 0.0053 | 0.471 ± 0.021 | 0.413 ± 0.029 | 0.4057 ± 0.0032 | 0.423 ± 0.032 | 0.416 ± 0.043 | 0.412 ± 0.0073 | 0.362 ± 0.018 |
| FFVFLVLFCLWV | 0.278 ± 0.027 | 0.259 ± 0.065 | 0.302 ± 0.035 | 0.397 ± 0.008 | 0.321 ± 0.022 | 0.261 ± 0.031 | 0.356 ± 0.0055 | 0.391 ± 0.076 |
| FFVFMAKLRTCN | 0.455 ± 0.042 | 0.536 ± 0.034 | 0.444 ± 0.025 | 0.594 ± 0.0073 | 0.112 ± 0.019 | 0.127 ± 0.025 | 0.198 ± 0.029 | 0.0754 ± 0.063 |
| FFVFYICSCFLV | 0.444 ± 0.037 | 0.476 ± 0.0043 | 0.389 ± 0.02 | 0.4843 ± 0.0041 | 0.457 ± 0.0071 | 0.372 ± 0.0097 | 0.442 ± 0.024 | 0.4 ± 0.047 |
| FFYVFPFFIFRF | 0.338 ± 0.046 | 0.31 ± 0.031 | 0.364 ± 0.04 | 0.521 ± 0.017 | 0.505 ± 0.025 | 0.362 ± 0.058 | 0.449 ± 0.0095 | 0.406 ± 0.065 |
| FGLRVHPIVFIF | 0.289 ± 0.032 | 0.269 ± 0.0053 | 0.374 ± 0.016 | 0.488 ± 0.018 | 0.0775 ± 0.022 | 0.0769 ± 0.016 | 0.0909 ± 0.047 | 0.128 ± 0.034 |
| FGLVAYPLWYIS | 0.504 ± 0.04 | 0.765 ± 0.0058 | 0.668 ± 0.014 | 0.777 ± 0.0099 | 0.0782 ± 0.031 | 0.0991 ± 0.0037 | 0.105 ± 0.029 | 0.18 ± 0.013 |
| FGSFVVWGVWWG | 0.458 ± 0.0071 | 0.4975 ± 0.0029 | 0.352 ± 0.036 | 0.563 ± 0.038 | 0.352 ± 0.015 | 0.356 ± 0.032 | 0.5069 ± 0.0015 | 0.508 ± 0.018 |
| FGVLGCAWVWVG | 0.394 ± 0.0091 | 0.528 ± 0.032 | 0.465 ± 0.033 | 0.625 ± 0.017 | 0.0888 ± 0.019 | 0.114 ± 0.021 | 0.103 ± 0.037 | 0.157 ± 0.045 |
| FICLLFSCVYLG | 0.51 ± 0.025 | 0.535 ± 0.013 | 0.464 ± 0.026 | 0.593 ± 0.039 | 0.3776 ± 0.0014 | 0.382 ± 0.026 | 0.5293 ± 0.005 | 0.41 ± 0.072 |
| FIGVLVFSWLLF | 0.244 ± 0.029 | 0.371 ± 0.0074 | 0.241 ± 0.035 | 0.412 ± 0.021 | 0.215 ± 0.0034 | 0.235 ± 0.024 | 0.381 ± 0.021 | 0.37 ± 0.03 |
| FKVTWGLFYGSV | 0.551 ± 0.098 | 0.653 ± 0.048 | 0.505 ± 0.034 | 0.581 ± 0.013 | 0.535 ± 0.059 | 0.548 ± 0.026 | 0.595 ± 0.011 | 0.44 ± 0.061 |
| FLCVLYFFLCVE | 0.218 ± 0.00042 | 0.3209 ± 0.0031 | 0.253 ± 0.03 | 0.404 ± 0.055 | 0.195 ± 0.01 | 0.224 ± 0.015 | 0.334 ± 0.022 | 0.417 ± 0.18 |
| FLQIIIFSRVLF | 0.455 ± 0.013 | 0.543 ± 0.059 | 0.377 ± 0.017 | 0.549 ± 0.0081 | 0.366 ± 0.026 | 0.364 ± 0.031 | 0.52 ± 0.011 | 0.467 ± 0.024 |
| FLRWRVWVVVGW | 0.187 ± 0.023 | 0.259 ± 0.024 | 0.199 ± 0.035 | 0.358 ± 0.027 | 0.18 ± 0.012 | 0.181 ± 0.021 | 0.332 ± 0.039 | 0.234 ± 0.0043 |
| FLSRLVGFYFVV | 0.606 ± 0.018 | 0.69 ± 0.0093 | 0.587 ± 0.026 | 0.733 ± 0.022 | 0.313 ± 0.006 | 0.312 ± 0.014 | 0.463 ± 0.014 | 0.361 ± 0.021 |
